Experimental data published in PMC8349896 (Molecular cell, 2021).

Legend:
[1] = target: the molecule itself; test: SEC
[2] = target: T1, gp16-N (bacteriophage T7, UniProt P03726 1-228); test: EMSA
T1 sequence: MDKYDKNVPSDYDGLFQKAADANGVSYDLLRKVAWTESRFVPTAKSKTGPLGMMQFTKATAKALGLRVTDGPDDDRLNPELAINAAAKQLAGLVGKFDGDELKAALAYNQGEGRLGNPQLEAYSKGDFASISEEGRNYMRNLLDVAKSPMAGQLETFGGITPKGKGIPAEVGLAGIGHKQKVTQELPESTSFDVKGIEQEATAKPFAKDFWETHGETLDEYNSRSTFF

[3] = target: T2, gp16-C (bacteriophage T7, UniProt P03726 275-1318); test: EMSA
T2 sequence: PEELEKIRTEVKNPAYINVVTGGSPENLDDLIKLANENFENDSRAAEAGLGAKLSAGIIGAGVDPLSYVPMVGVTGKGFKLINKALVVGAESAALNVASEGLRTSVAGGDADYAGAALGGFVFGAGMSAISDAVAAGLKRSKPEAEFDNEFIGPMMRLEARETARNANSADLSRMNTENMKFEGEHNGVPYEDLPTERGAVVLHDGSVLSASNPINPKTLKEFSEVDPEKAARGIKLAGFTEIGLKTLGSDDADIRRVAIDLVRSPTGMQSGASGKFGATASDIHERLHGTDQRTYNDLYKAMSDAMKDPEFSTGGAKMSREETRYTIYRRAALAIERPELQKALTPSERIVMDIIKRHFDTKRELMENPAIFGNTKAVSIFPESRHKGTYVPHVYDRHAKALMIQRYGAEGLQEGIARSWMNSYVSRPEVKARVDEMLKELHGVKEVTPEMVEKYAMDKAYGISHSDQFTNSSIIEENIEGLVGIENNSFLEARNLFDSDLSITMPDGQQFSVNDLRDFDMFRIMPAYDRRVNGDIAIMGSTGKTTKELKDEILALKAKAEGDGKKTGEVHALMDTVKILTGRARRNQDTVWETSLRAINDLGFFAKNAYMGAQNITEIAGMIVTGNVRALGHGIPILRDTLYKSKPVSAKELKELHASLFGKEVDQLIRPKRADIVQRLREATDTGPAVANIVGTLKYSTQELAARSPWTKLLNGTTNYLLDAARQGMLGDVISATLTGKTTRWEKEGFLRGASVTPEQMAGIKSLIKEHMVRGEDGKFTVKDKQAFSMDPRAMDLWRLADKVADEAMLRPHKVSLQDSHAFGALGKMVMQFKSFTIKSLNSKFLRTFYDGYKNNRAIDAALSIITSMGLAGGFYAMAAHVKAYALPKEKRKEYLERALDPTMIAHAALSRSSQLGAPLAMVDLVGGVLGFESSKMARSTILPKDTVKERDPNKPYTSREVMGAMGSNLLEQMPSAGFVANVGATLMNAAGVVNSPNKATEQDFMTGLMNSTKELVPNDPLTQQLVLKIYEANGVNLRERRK

[4] = target: T3, bacteriophage T7 ejection protein gp15, full length (bacteriophage T7, UniProt P03725 1-747); test: native gel or EMSA
T3 sequence (looked up): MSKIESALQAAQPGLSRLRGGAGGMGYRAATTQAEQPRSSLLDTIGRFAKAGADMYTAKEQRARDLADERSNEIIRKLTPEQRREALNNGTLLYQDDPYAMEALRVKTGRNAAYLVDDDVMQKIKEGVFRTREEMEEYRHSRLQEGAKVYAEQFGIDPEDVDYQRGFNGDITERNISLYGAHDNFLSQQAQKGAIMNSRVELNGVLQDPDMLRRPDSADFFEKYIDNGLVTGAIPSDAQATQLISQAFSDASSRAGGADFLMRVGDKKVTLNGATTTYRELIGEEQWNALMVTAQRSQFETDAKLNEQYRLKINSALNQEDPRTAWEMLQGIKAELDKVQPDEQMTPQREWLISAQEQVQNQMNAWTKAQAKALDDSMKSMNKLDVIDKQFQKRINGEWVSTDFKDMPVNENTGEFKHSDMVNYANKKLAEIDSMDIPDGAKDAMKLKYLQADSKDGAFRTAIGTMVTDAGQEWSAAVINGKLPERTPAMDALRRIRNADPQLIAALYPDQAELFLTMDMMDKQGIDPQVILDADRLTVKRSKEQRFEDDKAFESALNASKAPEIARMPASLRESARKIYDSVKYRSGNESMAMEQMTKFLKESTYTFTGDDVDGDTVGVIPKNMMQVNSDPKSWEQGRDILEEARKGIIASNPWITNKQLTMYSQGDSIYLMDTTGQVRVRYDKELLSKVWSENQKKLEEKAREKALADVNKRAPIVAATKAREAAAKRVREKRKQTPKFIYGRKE

B1: bacteriophage T7 ejection protein gp14 (natural protein, UniProt P03724 1-196, looked up)
chain: MCWAAAIPIAISGAQAISGQNAQAKMIAAQTAAGRRQAMEIMRQTNIQNADLSLQARSKLEEASAELTSQNMQKVQAIGSIRAAIGESMLEGSSMDRIKRVTEGQFIREANMVTENYRRDYQAIFAQQLGGTQSAASQIDEIYKSEQKQKSKLQMVLDPLAIMGSSAASAYASGAFDSKSTTKAPIVAAKGTKTGR
binding result [1]: binds

B2: Cy3-dsDNA 24-mer (dsDNA)
DNA 1: GCACTGCAGTAACTTGTCAGTCAT
DNA 2: ATGACTGACAAGTTACTGCAGTGC
binding result [2]: no binding
binding result [3]: binds

B3: gp16-N (bacteriophage T7 gp16 residues 1-228) (domain or fragment, UniProt P03726 1-228, looked up)
chain: T1 sequence
binding result [4]: binds
